We go through 1 molecule from US20210253733A1 (ONCORESPONSE, published 2021).

The target in test [1] is T1, human CD163 expressed on human myeloid cells (M2c macrophages, M2 macrophages, in vitro MDSCs) (human, UniProt Q86VB7 42-1114).
T1 construct: Endogenous CD163 on primary human monocyte-derived cells; also called huCD163; CD163^Hi cells
The test is described as follows: flow cytometry, AF647-conjugated AB102 on polarized M2c macrophages without siRNA. Here is the method:
The macrophage detachment solution was replaced with cold PBS−/− (PBS without calcium and magnesium; Hyclone No. SH30028.02) containing 0.2 mM EDTA and 0.1% HSA. The cells were spun down at 650×g for 5 min and then resuspended in 0.5 mL cold Block solution (FACS buffer+10% NGS+10 μg of human IgG Fc fragment protein (Abcam No. ab90285)) per million cells. The cells were counted and an average of 1×10⁶ per mL was used for further calculations. The cells were incubated at RT for 15 min (to increase FcR binding), followed by a 30 min incubation on ice for full blocking. An aliquot of unstained cells was set aside for compensation controls. e780 viability dye (ThermoFisher eBioscience No. 65-0865-18) was added to the remainder at a final dilution of 1:1000. Cells were aliquoted into 96-well plates (40 μL per well), and 10 μL of antibody solution was added to each well. Antibodies were prepared with a starting concentration of 100 μg/mL in FACS buffer and serially diluted in FACS buffer. After addition of antibodies, each set of cells was tested with an antibody panel (AB101 in FcNull framework conjugated to AF647 and commercial anti-CD163 conjugated to BV421 [BioLegend No. 333612]) and an isotype panel (ISO2 in FcNull framework conjugated to AF647 and commercial mIgG1 conjugated to BV421). […] Cells were then analyzed by flow cytometry on a BD Canto II machine.

The target of test [2] is T2, His-tagged recombinant human CD163 (R&D Systems, No. 1607-CD-050) (human, UniProt Q86VB7 46-1050).
T2 construct: Bought protein; also called huCD163; not shown: His tag
As to the kind of experiment: ELISA, plate coated with 5 ug/mL His-tagged recombinant human CD163, HRP anti-human IgG F(ab')2, A450. Here is the method:
AB101 binding to His-tagged recombinant human CD163 (R&D Systems, No. 1607-CD-050) and recombinant murine CD163 (R&D Systems, No. 7435-CD-050) proteins was determined using ELISA. Recombinant proteins were diluted in PBS to 5 μg/mL and added to 384-well High binding ELISA plates (Greiner Bio-One, No. 781061) at 25 μL per well and incubated at 4° C. overnight. The plates were washed three times with PBS, using the BioTek ELx405 Select microplate washer (wash program ELISA_384_PBS_3×_wash) and then blocked with 90 μL/well of blocking buffer (2% nonfat, dry milk/PBS+0.05% Tween 20) for 1 hr at RT.
After blocking, 25 μL per well of primary antibodies were added to the plates and incubated for 1 hr at room temp. The test antibody was AB101; the control anti-huCD163 antibody was a commercially available antibody in murine IgG1 framework (R&D Systems, #MAB1607); the isotype controls were a proprietary mAb, in human IgG1, human FcNull, and murine IgG1 frameworks, with known specificity. After primary antibody binding, plates were washed three times with PBS using the EL405× (wash program ELISA_384_PBS_3×_wash). […] After development, the reaction was stopped by adding 25 μL per well of 0.3 M HCl and plates were read using the SpectraMax M5e instrument at 450 nm.
For orientation: ELISA stands for enzyme-linked immunosorbent assay.

What is called EC50 (read off the curve) is the concentration that produces a half-maximal response.

T1 sequence (Q86VB7 other isoform, or with tags, fused parts or gaps limits assumed): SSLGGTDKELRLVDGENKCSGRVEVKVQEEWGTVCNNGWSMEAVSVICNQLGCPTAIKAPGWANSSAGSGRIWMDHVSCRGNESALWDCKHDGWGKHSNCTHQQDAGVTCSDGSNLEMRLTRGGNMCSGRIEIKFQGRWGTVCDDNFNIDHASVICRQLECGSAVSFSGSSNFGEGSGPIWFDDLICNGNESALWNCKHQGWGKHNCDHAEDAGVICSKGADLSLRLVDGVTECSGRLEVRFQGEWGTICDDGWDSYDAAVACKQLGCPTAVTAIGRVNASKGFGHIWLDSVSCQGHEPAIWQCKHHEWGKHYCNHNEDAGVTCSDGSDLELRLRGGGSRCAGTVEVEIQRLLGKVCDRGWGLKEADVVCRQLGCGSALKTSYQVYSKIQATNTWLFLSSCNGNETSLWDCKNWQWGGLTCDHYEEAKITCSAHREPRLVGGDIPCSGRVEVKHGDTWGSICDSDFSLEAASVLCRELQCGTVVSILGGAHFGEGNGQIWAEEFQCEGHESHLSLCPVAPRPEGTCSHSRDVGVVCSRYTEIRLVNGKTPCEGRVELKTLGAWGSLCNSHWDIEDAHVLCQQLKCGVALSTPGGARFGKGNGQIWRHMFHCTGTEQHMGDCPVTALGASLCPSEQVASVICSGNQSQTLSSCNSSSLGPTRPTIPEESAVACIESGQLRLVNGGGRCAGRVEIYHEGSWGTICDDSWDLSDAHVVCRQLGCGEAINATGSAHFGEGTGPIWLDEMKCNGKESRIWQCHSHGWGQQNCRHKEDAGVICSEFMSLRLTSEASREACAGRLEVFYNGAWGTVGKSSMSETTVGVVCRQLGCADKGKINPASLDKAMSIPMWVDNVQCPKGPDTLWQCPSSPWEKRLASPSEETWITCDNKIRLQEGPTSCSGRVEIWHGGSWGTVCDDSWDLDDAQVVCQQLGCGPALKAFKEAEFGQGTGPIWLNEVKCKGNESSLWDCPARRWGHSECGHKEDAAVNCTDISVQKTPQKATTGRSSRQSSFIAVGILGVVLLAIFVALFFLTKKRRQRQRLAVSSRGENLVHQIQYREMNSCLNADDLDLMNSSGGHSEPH
T2 sequence (Q86VB7 46-1050 limits assumed): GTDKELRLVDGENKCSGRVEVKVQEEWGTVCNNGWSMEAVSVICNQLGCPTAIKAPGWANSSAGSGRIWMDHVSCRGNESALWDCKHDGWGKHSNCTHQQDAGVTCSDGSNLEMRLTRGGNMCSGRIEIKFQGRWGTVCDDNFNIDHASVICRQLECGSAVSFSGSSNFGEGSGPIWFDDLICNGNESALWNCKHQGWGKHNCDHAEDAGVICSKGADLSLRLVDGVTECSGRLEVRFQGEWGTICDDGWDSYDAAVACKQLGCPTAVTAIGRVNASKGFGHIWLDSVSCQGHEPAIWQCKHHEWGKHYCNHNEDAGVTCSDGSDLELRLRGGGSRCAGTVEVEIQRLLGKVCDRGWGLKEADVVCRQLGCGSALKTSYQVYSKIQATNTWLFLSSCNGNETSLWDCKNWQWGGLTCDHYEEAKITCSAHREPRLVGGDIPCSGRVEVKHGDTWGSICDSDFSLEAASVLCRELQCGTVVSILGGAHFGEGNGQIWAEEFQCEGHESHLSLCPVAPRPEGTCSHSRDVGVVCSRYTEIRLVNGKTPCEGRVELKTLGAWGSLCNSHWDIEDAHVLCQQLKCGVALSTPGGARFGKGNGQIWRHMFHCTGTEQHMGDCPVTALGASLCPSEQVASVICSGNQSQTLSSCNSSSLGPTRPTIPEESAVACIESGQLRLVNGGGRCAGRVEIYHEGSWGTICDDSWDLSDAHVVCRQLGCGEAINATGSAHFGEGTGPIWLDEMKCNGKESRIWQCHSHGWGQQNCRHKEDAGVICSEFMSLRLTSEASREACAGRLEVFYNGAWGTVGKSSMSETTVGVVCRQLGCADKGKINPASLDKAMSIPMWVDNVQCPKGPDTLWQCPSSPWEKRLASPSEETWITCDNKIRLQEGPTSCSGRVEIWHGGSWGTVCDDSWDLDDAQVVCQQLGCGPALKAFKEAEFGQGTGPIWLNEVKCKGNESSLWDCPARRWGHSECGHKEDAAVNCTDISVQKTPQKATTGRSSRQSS

B1: AB102 (antibody, human IgG1, kappa)
light: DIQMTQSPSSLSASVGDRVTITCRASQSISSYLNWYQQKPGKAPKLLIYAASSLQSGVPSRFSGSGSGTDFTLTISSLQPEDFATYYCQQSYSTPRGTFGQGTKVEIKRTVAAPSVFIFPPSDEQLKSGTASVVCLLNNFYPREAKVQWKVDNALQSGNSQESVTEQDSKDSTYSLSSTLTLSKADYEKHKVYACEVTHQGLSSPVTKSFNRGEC
heavy: EVQLVESGGGVVQPGRSLRLSCAASGFTFSSYAMHWVRQAPGKGLEWVAVISYDGSNKYYADSVKGRFTISRDNSKNTLYLQMNSLRAEDTAVYYCARENVRPYYDFWSGYYSEYYYYGMDVWGQGTTVTVSSASTKGPSVFPLAPSSKSTSGGTAALGCLVKDYFPEPVTVSWNSGALTSGVHTFPAVLQSSGLYSLSSVVTVPSSSLGTQTYICNVNHKPSNTKVDKRVEPKSCDKTHTCPPCPAPEFEGGPSVFLFPPKPKDTLMISRTPEVTCVVVDVSHEDPEVKFNWYVDGVEVHNAKTKPREEQYNSTYRVVSVLTVLHQDWLNGKEYKCKVSNKALPASIEKTISKAKGQPREPQVYTLPPSREEMTKNQVSLTCLVKGFYPSDIAVEWESNGQPENNYKTTPPVLDSDGSFFLYSKLTVDKSRWQQGNVFSCSVMHEALHNHYTQKSLSLSPGK
notes: Biotinylated for the PFA immunoprecipitation and AF647 conjugated for flow cytometry; also called AB101 FcNull antibody; AB101 in FcNull framework; copies: 2 + 2
Consider B1, for which the “EC50 (read off the curve)” value in test [1] is about 10 nM; in test [2], about 1 nM.
